Data taken from article PMC8928829 (mAbs, 2022).

Experiments:
Experiment in all cases: BLI
Conditions in all cases: both partners purified
[1] = molecular target: T1, recombinant SARS-CoV-2 RBD, Beta (B.1.351), K417N, E484K, N501Y (SARS-CoV-2, Beta (B.1.351), K417N | E484K | N501Y)
T1 construct: source: bought: ACRO Biosystems

[2] = molecular target: T2, recombinant SARS-CoV-2 RBD, Delta (B.1.617.2), L452R, T478K (SARS-CoV-2, Delta (B.1.617.2), L452R | T478K)
T2 construct: also called Delta variant RBD; source: bought: ACRO Biosystems

[3] = molecular target: T3, recombinant SARS-CoV-2 RBD, Gamma (P.1), K417T, E484K, N501Y (SARS-CoV-2, Gamma (P.1), K417T | E484K | N501Y)
T3 construct: source: bought: ACRO Biosystems

[4] = molecular target: T4, recombinant SARS-CoV-2 RBD, Alpha (B.1.1.7), N501Y (SARS-CoV-2, Alpha (B.1.1.7) RBD N501Y, N501Y)
T4 construct: also called RBD_(N501Y); source: bought: ACRO Biosystems

[5] = molecular target: T5, SARS-CoV-2 RBD Beta (B.1.351) (SARS-CoV-2, Beta (B.1.351), K417N | E484K | N501Y)
T5 construct: also called B.1.351/K417N, E484K, N501Y; source: bought: ACRO Biosystems

[6] = molecular target: T6, SARS-CoV-2 RBD Alpha (B.1.1.7) N501Y (SARS-CoV-2, Alpha (B.1.1.7) RBD N501Y, N501Y)
T6 construct: also called RBD N501Y; source: bought: ACRO Biosystems

[7] = molecular target: T7, SARS-CoV-2 RBD Gamma (P.1) (SARS-CoV-2, Gamma (P.1), K417T | E484K | N501Y)
T7 construct: also called P.1/K417T, E484K, N501Y; source: bought: ACRO Biosystems

[8] = molecular target: T8, SARS-CoV-2 RBD Delta (B.1.617.2) (SARS-CoV-2, Delta (B.1.617.2), L452R | T478K)
T8 construct: also called B.1.617.2/L452R, T478K; source: bought: ACRO Biosystems

B1: NIH-CoVnb-112 (VHH)
VHH: DVQLQESGGGLVQPGGSLRLSCAASGLTLDYYAIGWFRQAPGKEREGVSCISSSDGSTYYADSVKGRFTTSRDNAKNTVYLQMNSLKPEDTAVYYCAAVPSTYYSGTYYYTCHPGGMDYWGKGTQVTVSS
- Kd [1]: 4.28 nM
- Kd [2]: 1.66 nM
- kon [2]: 461000 M⁻¹ s⁻¹
- Kd [3]: 4.16 nM
- Kd [4]: 3 nM

B2: NIH-CoVnb-112 (VHH)
VHH: B1 VHH
- koff [5]: 0.000705 s⁻¹
- kon [5]: 201000 M⁻¹ s⁻¹
- koff [6]: 0.000428 s⁻¹
- kon [6]: 153000 M⁻¹ s⁻¹
- koff [7]: 0.000822 s⁻¹
- kon [7]: 214000 M⁻¹ s⁻¹
- koff [8]: 0.000609 s⁻¹
